Data published in publication PMC12125552.

How the values were obtained:
[1] = molecular target: DdMyo7 short heavy meromyosin forced-dimer GFP (shHMM-FD-GFP) (Dictyostelium | not stated); assay: co-IP; as a2, but the resin washed in IP wash buffer + 2 mM CaCl2 (+Ca2+); immunoblot signal normalised for gel load and heavy chain abundance
[2] = molecular target: DdMyo7 long heavy meromyosin (lnHMM), FLAG-tagged (Dictyostelium); assay: co-IP; lnHMM (FLAG) precipitated with anti-Flag beads from a MgATP-released, myosin-enriched cytoskeletal fraction of talA null cells; washed in Flag buffer (25 mM Hepes pH 7.4, 300 mM NaCl, 10 mM MgCl2 and 5 mM EGTA, or 2 mM CaCl2); eluted with Flag peptide; gel stained with Coomassie or Sypro Ruby, densitometry normalised to molecular weights; lower band identified by mass spectrometry
[3] = molecular target: DdMyo7 short heavy meromyosin forced-dimer GFP (shHMM-FD-GFP) (Dictyostelium | not stated)

Sequence of DdMyo7 long heavy meromyosin (lnHMM), FLAG-tagged (Dictyostelium) (Q9U1M8 686-725): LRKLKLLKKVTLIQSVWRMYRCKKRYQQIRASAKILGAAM

FLAG-CalB (natural protein)
reduction of immunoblot signal with Ca2+ [1]: 75.1%

Dictyostelium CaM-like protein CalB (natural protein)
stoichiometry N [2]: 2.01 CalB per HC
velocity of shHMM-FD on F-actin (TIRF motility assay) with 100 μM free Ca2+, against 40.7 nm/s without Ca2+ [3]: 23.6 nm/s
